Positions count from the first letter of the chain named.

Assay [1] has as its target T1, CD123 Protein, His Tag, Acro Biosciences Cat. No. ILA-H52H6 (Homo sapiens (Human), UniProt P26951 19-305).
T1 construct: Bought protein; not shown: His tag
T1 sequence: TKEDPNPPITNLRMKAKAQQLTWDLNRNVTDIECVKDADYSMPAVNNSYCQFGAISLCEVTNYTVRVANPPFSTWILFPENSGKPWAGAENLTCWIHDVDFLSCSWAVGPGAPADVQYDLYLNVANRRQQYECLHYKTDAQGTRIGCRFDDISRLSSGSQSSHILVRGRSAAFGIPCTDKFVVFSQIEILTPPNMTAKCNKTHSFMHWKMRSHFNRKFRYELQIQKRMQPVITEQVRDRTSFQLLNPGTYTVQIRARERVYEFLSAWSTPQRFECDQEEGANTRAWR
Description: BLI, IgG on anti-human Fc sensor, pH 7.4 and pH 5.4.

Assay [2] deals with T1, CD123 Protein, His Tag, Acro …. Description: BLI, IgG on anti-human Fc sensor, 50 nM CD123, pH 7.4 and pH 5.4. In short, it runs like this:
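Single His/Ala heavy-chain CDR variants were expressed in Expi293 and captured from diluted supernatant on anti-human Fc sensors. By BLI, association with 50 nM His-tagged CD123 ran for 120 s and dissociation for 300–600 s, all in PBST pH 7.4. The full cycle was repeated separately in PBST pH 5.4.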

B1: MYT1281 (antibody, V domains shown)
VH: QVQLVQSGAEVKKPGASVKVSCKASGYIFTSSIMHWVRQAPGQGLEWIGYIKPYNDGTKYNEKFKGRATLTSDRSTSTAYMELSSLRSEDTAVYYCARHGGNDYYDTMDYWGQGTLVTVSS
VL: DIQMTQSPSSLSASVGDRVTITCRASQDINSYLSWFQQKPGKAPKTLIYRVNRLVDGVPSRFSGSGSGNDYTLTISSLQPEDFATYYCLQYDAFPYTFGQGTKVEIK
notes: IgG
As to B1, the binding result in assay [1] was “no binding (tested: 50 nM)”.

B2: MYT1417 (antibody, V domains shown)
VH: QVQLVQSGAEVKKPGASVKMSCKASGYTHTDYYMKWVKQAPGQGLEWIGDIIPSNGATFYNQKFKGKATLTVDRSISTAYMHLNRLRSDDTAVYYCTRSHLLRASWFAYWGQGTLVTVSS
VL: DFVMTQSPDSLAVSLGERATINCKSSQSLLNSGNQKNYLTWYLQKPGQPPKLLIYWASTRESGVPDRFSGSGSGTDFTLTISSLQAEDVAVYYCQNDYSYPYTFGQGTKLEIK
notes: IgG
Take B2: the binding result in assay [1] is reported as “no binding (tested: 50 nM)”.

B3: MYT1435 (antibody, V domains shown)
VH: B2 VH with H29F, N61H
VL: B2 VL
notes: IgG
With B3, in assay [2], the binding result is given as “binds”.

B4: MYT1434 (antibody, V domains shown)
VH: B2 VH with H29F, Y60H
VL: B2 VL
notes: IgG
On to B4, for which the binding result in assay [2] was “binds”.

B5: MYT1449 (antibody, V domains shown)
VH: B2 VH with H29F, S105H
VL: B2 VL
notes: IgG
Turning to B5, in assay [2], the binding result was “binds”.

B6: MYT1422 (antibody, V domains shown)
VH: B2 VH with H29F, M34H
VL: B2 VL
notes: IgG
Consider B6, for which, in assay [2], the binding result is listed as “binds”.

B7: MYT1444 (antibody, V domains shown)
VH: B2 VH with H29F, H100A
VL: B2 VL
notes: IgG
On to B7, for which, in assay [1], the binding result is reported as “no binding (tested: 50 nM)”.

B8: MYT1439 (antibody, V domains shown)
VH: B2 VH with H29F, K65H
VL: B2 VL
notes: IgG
With B8, the binding result in assay [2] is recorded as “binds”.

B9: MYT1426 (antibody, V domains shown)
VH: B2 VH with H29F, I52H
VL: B2 VL
notes: IgG
As for B9, the binding result in assay [2] is given as “binds”.

B10: MYT1445 (antibody, V domains shown)
VH: B2 VH with H29F, L101H
VL: B2 VL
notes: IgG
As to B10, in assay [2], the binding result is given as “binds”.

B11: MYT1446 (antibody, V domains shown)
VH: B2 VH with H29F, L102H
VL: B2 VL
notes: IgG
Regarding B11, the binding result in assay [2] was “binds”.

B12: MYT1443 (antibody, V domains shown)
VH: B2 VH with H29F, S99H
VL: B2 VL
notes: IgG
With B12, the binding result in assay [1] is listed as “no binding (tested: 50 nM)”.

B13: MYT1425 (antibody, V domains shown)
VH: B2 VH with H29F, I51H
VL: B2 VL
notes: IgG
For the molecule B13, in assay [1], the binding result is listed as “no binding (tested: 50 nM)”.

B14: MYT1432 (antibody, V domains shown)
VH: B2 VH with H29F, T58H
VL: B2 VL
notes: IgG
Turning to B14, the binding result in assay [2] is “binds”.

B15: MYT1437 (antibody, V domains shown)
VH: B2 VH with H29F, K63H
VL: B2 VL
notes: IgG
In the case of B15, the binding result in assay [2] was “binds”.

B16: MYT1447 (antibody, V domains shown)
VH: B2 VH with H29F, R103H
VL: B2 VL
notes: IgG
For B16, the binding result in assay [1] is “no binding (tested: 50 nM)”.

B17: MYT1424 (antibody, V domains shown)
VH: B2 VH with H29F, D50H
VL: B2 VL
notes: IgG
On to B17, for which the binding result in assay [1] is listed as “no binding (tested: 50 nM)”.

B18: MYT1442 (antibody, V domains shown)
VH: B2 VH with H29F, R98H
VL: B2 VL
notes: IgG
With B18, the binding result in assay [2] was “binds”.

B19: MYT1452 (antibody, V domains shown)
VH: B2 VH with H29F, A108H
VL: B2 VL
notes: IgG
Consider B19, for which the binding result in assay [2] is reported as “binds”.

B20: MYT1429 (antibody, V domains shown)
VH: B2 VH with H29F, N55H
VL: B2 VL
notes: IgG
As for B20, in assay [2], the binding result was “binds”.

B21: MYT1431 (antibody, V domains shown)
VH: B2 VH with H29F, A57H
VL: B2 VL
notes: IgG
For B21, the binding result in assay [2] was “binds”.

B22: MYT1427 (antibody, V domains shown)
VH: B2 VH with H29F, P53H
VL: B2 VL
notes: IgG
With B22, in assay [1], the binding result was “no binding (tested: 50 nM)”.

B23: MYT1441 (antibody, V domains shown)
VH: B2 VH with H29F, T97H
VL: B2 VL
notes: IgG
For B23, in assay [1], the binding result was “no binding (tested: 50 nM)”.

B24: MYT1428 (antibody, V domains shown)
VH: B2 VH with H29F, S54H
VL: B2 VL
notes: IgG
Take B24: in assay [2], the binding result was “binds”.

B25: MYT1451 (antibody, V domains shown)
VH: B2 VH with H29F, F107H
VL: B2 VL
notes: IgG
On to B25, for which the binding result in assay [2] is “binds”.

B26: MYT1448 (antibody, V domains shown)
VH: B2 VH with H29F, A104H
VL: B2 VL
notes: IgG
In the case of B26, in assay [2], the binding result was “binds”.

B27: MYT1423 (antibody, V domains shown)
VH: B2 VH with H29F, K35H
VL: B2 VL
notes: IgG
Consider B27, for which, in assay [2], the binding result is on record as “binds”.

B28: MYT1450 (antibody, V domains shown)
VH: B2 VH with H29F, W106H
VL: B2 VL
notes: IgG
As for B28, the binding result in assay [1] is “no binding (tested: 50 nM)”.

B29: MYT1436 (antibody, V domains shown)
VH: B2 VH with H29F, Q62H
VL: B2 VL
notes: IgG
As for B29, in assay [2], the binding result is reported as “binds”.

B30: MYT1430 (antibody, V domains shown)
VH: B2 VH with H29F, G56H
VL: B2 VL
notes: IgG
For B30, the binding result in assay [2] is given as “binds”.

B31: MYT1433 (antibody, V domains shown)
VH: B2 VH with H29F, F59H
VL: B2 VL
notes: IgG
Take B31: the binding result in assay [2] was “binds”.

B32: MYT1440 (antibody, V domains shown)
VH: B2 VH with H29F, G66H
VL: B2 VL
notes: IgG
For the molecule B32, the binding result in assay [2] is recorded as “binds”.

B33: MYT1453 (antibody, V domains shown)
VH: B2 VH with H29F, Y109H
VL: B2 VL
notes: IgG
On to B33, for which the binding result in assay [2] is on record as “binds”.

B34: MYT1438 (antibody, V domains shown)
VH: B2 VH with H29F, F64H
VL: B2 VL
notes: IgG
As to B34, in assay [2], the binding result is listed as “binds”.

(Values after US20220306751A1 (MYTHIC THERAPEUTICS, published 2022).)
